Experimental data: US8460910B2 (Illumina Cambridge Limited, priority 2003, dated 2013)
Where a chain is given by its changes, count along the chain named. Names and notes keep the numbering of the source.

B1: YAV: 9° N polymerase (exo-) mutant, motif A region YAV, also A485L; SEQ ID NO: 22 (protein)
chain: MILDTDYITENGKPVIRVFKKENGEFKIEYDRTFEPYFYALLKDDSAIEDVKKVTAKRHGTVVKVKRAEKVQKKFLGRPIEVWKLYFNHPQDVPAIRDRIRAHPAVVDIYEYDIPFAKRYLIDKGLIPMEGDEELTMLAFAIATLYHEGEEFGTGPILMISYADGSEARVITWKKIDLPYVDVVSTEKEMIKRFLRVVREKDPDVLITYNGDNFDFAYLKKRCEELGIKFTLGRDGSEPKIQRMGDRFAVEVKGRIHFDLYPVIRRTINLPTYTLEAVYEAVFGKPKEKVYAEEIAQAWESGEGLERVARYSMEDAKVTYELGREFFPMEAQLSRLIGQSLWDVSRSSTGNLVEWFLLRKAYKRNELAPNKPDERELARRRGGYAGGYVKEPERGLWDNIVYLDFRSYAVSIIITHNVSPDTLNREGCKEYDVAPEVGHKFCKDFPGFIPSLLGDLLEERQKIKRKMKATVDPLEKKLLDYRQRLIKILANSFYGYYGYAKARWYCKECAESVTAWGREYIEMVIRELEEKFGFKVLYADTDGLHATIPGADAETVKKKAKEFLKYINPKLPGLLELEYEGFYVRGFFVTKKKYAVIDEEGKITTRGLEIVRRDWSEIAKETQARVLEAILKHGDVEEAVRIVKEVTEKLSKYEVPPEKLVIHEQITRDLRDYKATGPHVAVAKRLAARGVKIRPGTVISYIVLKGSGRIGDRAIPADEFDPTKHRYDAEYYIENQVLPAVERILKAFGYRKEDLRYQKTKQVGLGAWLKVKGKK
modifications: 9oN polymerase variant (exo-) with L408Y/Y409A/P410V mutations
B2: 2E: L408V/Y409A/P410L R484I/A485S/I486N 9° N mutant; SEQ ID NO: 12 (protein)
chain: B1 chain with Y408V, V410L, R484I, L485S, I486N
modifications: 9oN polymerase variant (exo-) with L408V/Y409A/P410L R484I/A485S/I486N mutations
B3: VAL (ED polymerase): 9° N DM derivative with L408V; V409A; P410L (motif A VAL) plus A485L; SEQ ID NO: 18 (protein)
chain: B1 chain with Y408V, V410L
modifications: 9oN polymerase variant (exo-) with L408V/Y409A/P410L and A485L mutations

Tests used:
[1] = tested on: cordycepin (3′deoxy adenosine triphosphate); details: Vent polymerase variant; cited from earlier work
3′ modified nucleotide [2] = test: Gel-based incorporation assay of Example 2, two cycles of enzymology on bead-bound 32P-labelled DNA template; format: biochemical; details: for Time to 50% product conversion on first cycle of incorporation / Time (mins) to 50% product conversion on second cycle of enzymology: 45° C., 50 mM Tris, pH 8, 4 mM MgSO4, 0.05 (v/v) Tween, 50 μg/ml enzyme, 2 μM 3′ modified nucleotide; for Time to 50% product conversion on first cycle of incorporation: first cycle (in parentheses); for incorporation of 3′ modified nucleotide analogues compared to 9° N DM (Y409V/A485L): region A variants, conditions of Example 2
Method: The mutant polymerases were assessed for their ability to incorporate a 3′ blocked nucleotide analogue using a gel-based assay as described in generic form in Example 1. The rates of incorporation of the modified nucleotides were compared to purified forms of related DNA polymerases in both a single round of incorporation and through two rounds of nucleotide incorporation. The DNA template that was used for these experiments was a commercially-synthesised biotinylated oligonucleotide.
The method for two cycles of incorporation involves the binding of the DNA primer-template to streptavidin-coated beads (Dynalbeads). These are prepared as follows: • Resuspend beads in storage pot by pipetting up and down Take 20 μL beads • Wash 3×200 μL TE buffer (10 mM Tris HCl pH 7.5, 1 mM EDTA) Add 50 μL B&W buffer (5 mM Tris HCl, pH 7.5; 1M NaCl, […]) • 25 μL H2O • 25 μL of ^32P-labelled biotin DNA template (final concentration of 100 nM)
The first cycle of enzymatic incorporation is performed on these beads as follows:
Incorporation mix 1 is added to the bead pellet from above.
Reactions are incubated at 45° C. for 15 minutes
The first cycle of enzymology is then deblocked by treatment with tri(carboxyethyl) phosphine (TCEP) as follows:
Add 65 μL TCEP (100 mM) in water and incubate at 65° C. for 15 minutes
After removal of the TE buffer, a second cycle of enzymatic incorporation is then performed by the addition of incorporation mix 2, as follows:
Take 5 μL samples out at ½, 1, 2, 4, 10, 30, 60 mins and add to gel loading buffer with EDTA.
Heat all samples to 95° C. for 10 mins and load 3 μl on a 12% acrylamide gel (Sambrook and Russell, 2001).
Time (mins) to 50% product conversion on second cycle of enzymology at 45° C., 50 mM Tris, pH 8, 4 mM MgSO4, 0.05 (v/v) Tween, 50 μg/ml enzyme, and 2 μM 3′ modified nucleotide. Time to 50% product conversion on first cycle of incorporation shown in parentheses. For other mutants the time to 50% conversion on the first cycle was not measured in these experiments

3′ modified nucleotide [3] = test: Single incorporation method (single cycle of nucleotide incorporation, gel read-out); format: biochemical; details: 45° C.; for incorporation of uracil nucleotide analogues with different 3′ modifications: 3′ O-allyl, 3′ S-methyl and 3′ O-azido methyl, single cycle, FIG. 3
Method: In order to determine whether the modified polymerases described in the previous examples have the capability to incorporate different nucleotide analogues that bear large modifications at the 3′ position of the sugar, three different uracil nucleotide analogues (3′ O-allyl, 3′ S-methyl, and 3′ O-azido methyl) were tested for their ability to be incorporated by two different […] (9° N ED variant polymerase, and 9° N YAV variant polymerase), compared to a control polymerase (9° N DM). A single cycle of nucleotide incorporation was performed at different time intervals using a ‘single incorporation’ method described below.
1. In a clean reaction tube, mix the following components: • 100 nM ^32P-labelled duplex DNA substrate • 50 μg/ml isolated DNA polymerase • 50 mM TrisHCl, pH 8 • 0.05% Tween20 • water to 47 μL
2. incubate the mixture at 45° C.
3. Add 4 mM MgSO4 and 2 μM 3′ modified nucleotide to the reaction mixture from 2, such that the total reaction volume is 50 μL
4. at various time intervals remove 5 μL aliquots from the reaction tube and mix with 5 μL gel loading buffer (described in Example 2)
5. Heat samples and load on acrylamide gels as described in Example 2.
To determine if the DNA polymerases described in previous examples were capable of incorporating 3′ modified nucleotide derivatives of A, G, C and T bases, and also of incorporating such nucleotide derivatives further modified by different fluorescent reporter groups, a single incorporation reaction (as described in Example 3) was performed with the following 3′ O-azido methyl nucleotide derivatives: […]

[4] = tested on: 3′ modified nucleotide analogues; test: Example 1 library screen (ffT-DIG filter assay) and primer extension assay against 9DM control; format: biochemical; details: variants mutated at regions A and B
Method: Mutations were introduced simultaneously at two regions of the 9° N DNA polymerase sequence, residues 408-410, and residues 484-486. A library of polymerase variants was screened for the incorporation of the 3′ modified nucleotide analogues.
The variant polymerases have increased activity towards the modified nucleotides utilised in the experiments. Thus, they appear to incorporate nucleotide analogues which have been modified at the 3′ sugar hydroxyl such that the substituent is larger in size than the naturally occurring 3′ hydroxyl group in primer extension assays faster than previously available polymerases which can act as a control polymerase, such as the 9° N (-exo) Y409V/A485L double mutant (designated 9DM herein).
There are many different methods for screening for nucleotide incorporation that are variations on the method of Sagner et al. (1991). One suitable method is described herein for the incorporation of 3′ modified nucleotide analogues that uses a digoxigenin-3-O-methyl-carbonyl-e-aminocaproic acid (DIG) derivative of the relevant nucleotide analogue (ffT-DIG)
Remove tape and 3 MM paper and place filter back in petri dish. Add incorporation solution pre-warmed to temperature that incorporation will be tested at. […]
This is a generalised method. […] Also, have ready eppendorf containing 1 μl CHASE mix for each reaction. […]

| Molecule | rate enhancement with cordycepin [1] | Time to 50% product conversion on first cycle of incorporation (3′ modified nucleotide [2]) | Time (mins) to 50% product conversion on second cycle of enzymology (3′ modified nucleotide [2]) | incorporation of 3′ modified nucleotide analogues compared to 9° N DM (Y409V/A485L) (3′ modified nucleotide [2]) | incorporation of uracil nucleotide analogues with different 3′ modifications (3′ modified nucleotide [3]; 2 μM nucleotide) | concentration of 3′ blocked nucleotide at which incorporation can be measured (as low as) (3′ modified nucleotide [3]; first cycle, single cycle experiment) | incorporation of 3′ modified nucleotide analogues compared to control polymerase (9DM) [4] | rate of incorporation of the modified nucleotides compared to the original mutant bearing changes at regions A and B (2E) (3′ modified nucleotide [2]) | substrate conversion (3′ modified nucleotide [3]; each 3′ O-azido methyl nucleotide derivative of Table IV (A, G, C, T; different dyes), 2 μM nucleotide, within 3 minutes) |
| --- | --- | --- | --- | --- | --- | --- | --- | --- | --- |
| Y412V: Vent DNA polymerase with mutation Y412V (Gardner and Jack 1999) | 2 fold | – | – | – | – | – | – | – | – |
| B1 | – | min (5 sec) | 1.2 min | best incorporation rate | incorporated efficiently | 50 nM | – | – | – |
| B2 | – | – | – | – | – | – | improved incorporation | – | – |
| B3 | – | min (16 sec) | 5.2 min | improved incorporation | incorporated efficiently | – | – | enhanced rate of incorporation | greater than 90% |
